Source: publication PMC2993637

How the values were obtained:
[1] = molecular target: MLL transactivation domain (Homo sapiens) (UniProt Q03164); details: cited from earlier work
[2] = molecular target: KIX domain (residues 586-672) of mouse CBP, wild type (mouse) (UniProt P45481); assay: ITC
[3] = molecular target: KIX domain (residues 586-672) of mouse CBP, L628A (mouse) (UniProt P45481); assay: NMR titration
[4] = molecular target: KIX domain (residues 586-672) of mouse CBP, wild type (mouse) (UniProt P45481); assay: NMR titration

| Kd [2] | Kd1 (primary site, two-site model) [3] | Kd2 (secondary site, two-site model) [3] | percent of KIX in the MLL-bound form (1:2 KIX:MLL) [3] | Kd2 (secondary site, two-site model) [4] | percent of KIX in the MLL-bound form (1:1 KIX:MLL) [4] | Substance | Kd [1] |
| --- | --- | --- | --- | --- | --- | --- | --- |
|  |  |  |  |  |  | CBP KIX (from UniProt P45481) | 2800 nM |
| 2100 nM | 220 µM | 1.63 mM | 74% | 920 µM | 94% | Human MLL transactivation domain (2842-2469 as printed) (domain or fragment) |  |
